Consider one molecule from patent publication US20020077295A1.

This assay has as its target Nogo binding sites (axonal Nogo receptors) on chick dorsal root ganglion neurons (chick). Put plainly: competition with 10 nM AP-Nogo binding to chick E12 DRG neurons (FIG. 3b).

Where no end group is shown, it is not given here.

In general, Ki refers to a dissociation constant, usually derived from enzyme kinetics or from competition with a known ligand.

For the molecule RIYKGVIQAIQKSDEGHPFRAYLESEVAISEELVQKYSNS (not fully specified) [Pep2-41 (2-41 fragment of Nogo)], the Ki came out at 150 nM.
